In the supplement of paper PMC10567573:

B1: SLC35F2 (parent)
chain: FVAFALCMFCLYSFMPLVIKVTSA

Variants of: B1
Test: protein stability index of a GFP-peptide fusion (GPS, HEK-293T) (PSI 1-6); higher = more stable
Conditions: c terminus: a fixed tail appended
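Further: lentivirally expressed fusions sorted by FACS into six bins by GFP to DsRed ratio, PSI derived from sequencing read proportions per bin multiplied by bin number.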

| Variant | protein stability index |
| --- | --- |
| FVAFALCMFCLYSFMPNVIKVTSA [L17N] | 1.58 |
| FVAFALCMFGLYSFMPLVIKVTSA [C10G] | 2.58 |
| FVAFALCMFSLYSFMPLVIKVTSA [C10S] | 3.53 |
| FVAFALCMFTLYSFMPLVIKVTSA [C10T] | 2.52 |
| FVAFALCMFDLYSFMPLVIKVTSA [C10D] | 3.05 |
| FVAFALCMFFLYSFMPLVIKVTSA [C10F] | 3.07 |
| FVAFALCMFYLYSFMPLVIKVTSA [C10Y] | 2.28 |
| FVAFALCMFILYSFMPLVIKVTSA [C10I] | 2.27 |
| FVAFALCMFNLYSFMPLVIKVTSA [C10N] | 2.8 |
| FVAFALCMFHLYSFMPLVIKVTSA [C10H] | 2.75 |
| FVAFALCMFQLYSFMPLVIKVTSA [C10Q] | 3.47 |
| FVAFALCMFWLYSFMPLVIKVTSA [C10W] | 2.35 |
| FVAFALCMFLLYSFMPLVIKVTSA [C10L] | 2.43 |
| FVAFALCMFMLYSFMPLVIKVTSA [C10M] | 2.88 |
| FVAFALCMFPLYSFMPLVIKVTSA [C10P] | 2.35 |
| FVAFALCMFRLYSFMPLVIKVTSA [C10R] | 3.21 |
| FVAFALCMFVLYSFMPLVIKVTSA [C10V] | 3.48 |
| FVAFALCMFKLYSFMPLVIKVTSA [C10K] | 2.52 |
| FVAFALCMFALYSFMPLVIKVTSA [C10A] | 2.18 |
| FVAFALCMFELYSFMPLVIKVTSA [C10E] | 3.49 |
| FVAFALCMFCLYSFHPLVIKVTSA [M15H] | 2.97 |
| FVAFALCMFCLYSFIPLVIKVTSA [M15I] | 3.14 |
| FVAFALCMFCLYSFYPLVIKVTSA [M15Y] | 3.23 |
| FVAFALCMFCLYSFSPLVIKVTSA [M15S] | 2.61 |

| Variant | protein stability index |
| --- | --- |
| FVAFALCMFCLYSFLPLVIKVTSA [M15L] | 3.33 |
| FVAFALCMFCLYSFCPLVIKVTSA [M15C] | 3.39 |
| FVAFALCMFCLYSFGPLVIKVTSA [M15G] | 2.42 |
| FVAFALCMFCLYSFKPLVIKVTSA [M15K] | 3.67 |
| FVAFALCMFCLYSFRPLVIKVTSA [M15R] | 2.98 |
| FVAFALCMFCLYSFQPLVIKVTSA [M15Q] | 3.41 |
| FVAFALCMFCLYSFFPLVIKVTSA [M15F] | 3.1 |
| FVAFALCMFCLYSFVPLVIKVTSA [M15V] | 2.71 |
| FVAFALCMFCLYSFEPLVIKVTSA [M15E] | 2.25 |
| FVAFALCMFCLYSFPPLVIKVTSA [M15P] | 4.92 |
| FVAFALCMFCLYSFDPLVIKVTSA [M15D] | 3.13 |
| FVAFALCMFCLYSFNPLVIKVTSA [M15N] | 3.43 |
| FVAFALCMFCLYSFTPLVIKVTSA [M15T] | 2.83 |
| FVAFALCMFCLYSFWPLVIKVTSA [M15W] | 2.1 |
| FVAFALCMFCPYSFMPLVIKVTSA [L11P] | 1.84 |
| FVAFALCMFCAYSFMPLVIKVTSA [L11A] | 3.07 |
| FVAFALCMFCFYSFMPLVIKVTSA [L11F] | 2.21 |
| FVAFALCMFCQYSFMPLVIKVTSA [L11Q] | 3.66 |
| FVAFALCMFCYYSFMPLVIKVTSA [L11Y] | 2.67 |
| FVAFALCMFCDYSFMPLVIKVTSA [L11D] | 3.52 |
| FVAFALCMFCCYSFMPLVIKVTSA [L11C] | 3.54 |
| FVAFALCMFCSYSFMPLVIKVTSA [L11S] | 4.04 |
| FVAFALCMFCHYSFMPLVIKVTSA [L11H] | 2.99 |
| FVAFALCMFCTYSFMPLVIKVTSA [L11T] | 2.43 |

| Variant | protein stability index |
| --- | --- |
| FVAFALCMFCRYSFMPLVIKVTSA [L11R] | 2.85 |
| FVAFALCMFCGYSFMPLVIKVTSA [L11G] | 2.39 |
| FVAFALCMFCWYSFMPLVIKVTSA [L11W] | 2.44 |
| FVAFALCMFCEYSFMPLVIKVTSA [L11E] | 4.11 |
| FVAFALCMFCIYSFMPLVIKVTSA [L11I] | 3.19 |
| FVAFALCMFCKYSFMPLVIKVTSA [L11K] | 3.17 |
| FVAFALCMFCVYSFMPLVIKVTSA [L11V] | 3 |
| FVAFALCMFCNYSFMPLVIKVTSA [L11N] | 3.45 |
| FVAFALCMFCLMSFMPLVIKVTSA [Y12M] | 2.75 |
| FVAFALCMFCLDSFMPLVIKVTSA [Y12D] | 1.79 |
| FVAFALCMFCLGSFMPLVIKVTSA [Y12G] | 3.85 |
| FVAFALCMFCLFSFMPLVIKVTSA [Y12F] | 2.54 |
| FVAFALCMFCLNSFMPLVIKVTSA [Y12N] | 3.2 |
| FVAFALCMFCLLSFMPLVIKVTSA [Y12L] | 2.5 |
| FVAFALCMFCLTSFMPLVIKVTSA [Y12T] | 2.68 |
| FVAFALCMFCLISFMPLVIKVTSA [Y12I] | 2.31 |
| FVAFALCMFCLSSFMPLVIKVTSA [Y12S] | 3.08 |
| FVAFALCMFCLRSFMPLVIKVTSA [Y12R] | 2.29 |
| FVAFALCMFCLASFMPLVIKVTSA [Y12A] | 3.98 |
| FVAFALCMFCLPSFMPLVIKVTSA [Y12P] | 2.25 |
| FVAFALCMFCLQSFMPLVIKVTSA [Y12Q] | 3.48 |
| FVAFALCMFCLHSFMPLVIKVTSA [Y12H] | 2.47 |
| FVAFALCMFCLKSFMPLVIKVTSA [Y12K] | 2.74 |
| FVAFALCMFCLVSFMPLVIKVTSA [Y12V] | 2.74 |

| Variant | protein stability index |
| --- | --- |
| FVAFALCMFCLWSFMPLVIKVTSA [Y12W] | 2.76 |
| FVAFALCMFCLESFMPLVIKVTSA [Y12E] | 3.32 |
| FVAFALCMFCLCSFMPLVIKVTSA [Y12C] | 2.32 |
| FVAFALCMFCLYSYMPLVIKVTSA [F14Y] | 2.41 |
| FVAFALCMFCLYSCMPLVIKVTSA [F14C] | 2.43 |
| FVAFALCMFCLYSTMPLVIKVTSA [F14T] | 2.91 |
| FVAFALCMFCLYSIMPLVIKVTSA [F14I] | 3.99 |
| FVAFALCMFCLYSDMPLVIKVTSA [F14D] | 3.53 |
| FVAFALCMFCLYSMMPLVIKVTSA [F14M] | 2.52 |
| FVAFALCMFCLYSEMPLVIKVTSA [F14E] | 2.86 |
| FVAFALCMFCLYSQMPLVIKVTSA [F14Q] | 2.31 |
| FVAFALCMFCLYSVMPLVIKVTSA [F14V] | 3.79 |
| FVAFALCMFCLYSSMPLVIKVTSA [F14S] | 3.81 |
| FVAFALCMFCLYSWMPLVIKVTSA [F14W] | 3.16 |
| FVAFALCMFCLYSHMPLVIKVTSA [F14H] | 3.63 |
| FVAFALCMFCLYSLMPLVIKVTSA [F14L] | 3.56 |
| FVAFALCMFCLYSPMPLVIKVTSA [F14P] | 2.46 |
| FVAFALCMFCLYSNMPLVIKVTSA [F14N] | 2.27 |
| FVAFALCMFCLYSRMPLVIKVTSA [F14R] | 3.4 |
| FVAFALCMFCLYSGMPLVIKVTSA [F14G] | 3.38 |
| FVAFALCMFCLYSAMPLVIKVTSA [F14A] | 2.78 |
| FVAFALCMFCLYSKMPLVIKVTSA [F14K] | 2.77 |
